Test results: publication doi:10.1101/2022.11.10.515920

Assays:
[1] = molecular target: adalimumab produced in BY-2 lysate; assay: SPR
[2] = molecular target: commercial adalimumab reference product from CHO cells (Humira); assay: SPR

human FcR I (CD64), sequence (P12314 16-292): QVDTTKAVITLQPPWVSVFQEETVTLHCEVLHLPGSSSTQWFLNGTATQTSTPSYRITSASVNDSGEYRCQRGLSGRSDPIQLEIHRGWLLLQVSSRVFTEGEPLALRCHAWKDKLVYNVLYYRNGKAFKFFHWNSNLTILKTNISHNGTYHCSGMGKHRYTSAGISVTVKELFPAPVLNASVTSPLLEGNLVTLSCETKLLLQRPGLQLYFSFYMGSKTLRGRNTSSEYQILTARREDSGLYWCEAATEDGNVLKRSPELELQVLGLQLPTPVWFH

- Kd [1]: 0.353 nM
- Kd [2]: 0.158 nM
Substance: human FcR I (CD64) (from UniProt P12314) (receptor)
